From article PMC10862077 (Frontiers in Immunology, 2024)

Tests used:
Settings in all cases: both partners purified
horse albumin [1] = target: T1, horse albumin (Equus caballus, UniProt P35747)
cat albumin [2] = target: T2, cat albumin (Felis catus, UniProt P49064)
[3] = target: T3, natural protein of Sus scrofa P08835 (Sus scrofa, UniProt P08835)
T3 construct: also called Sw

horse albumin [4] = target: T1, horse albumin; assay: ELISA; […], pH 7.4); room temperature; […]
cat albumin [5] = target: T2, cat albumin; assay: ELISA; […], pH 7.4); room temperature; […]
human albumin = target: T4, human albumin (Homo sapiens, UniProt P02768); assay: ELISA; […], pH 7.4); room temperature; […]
T4 construct: also called HSA
T4 sequence (P02768 25-609): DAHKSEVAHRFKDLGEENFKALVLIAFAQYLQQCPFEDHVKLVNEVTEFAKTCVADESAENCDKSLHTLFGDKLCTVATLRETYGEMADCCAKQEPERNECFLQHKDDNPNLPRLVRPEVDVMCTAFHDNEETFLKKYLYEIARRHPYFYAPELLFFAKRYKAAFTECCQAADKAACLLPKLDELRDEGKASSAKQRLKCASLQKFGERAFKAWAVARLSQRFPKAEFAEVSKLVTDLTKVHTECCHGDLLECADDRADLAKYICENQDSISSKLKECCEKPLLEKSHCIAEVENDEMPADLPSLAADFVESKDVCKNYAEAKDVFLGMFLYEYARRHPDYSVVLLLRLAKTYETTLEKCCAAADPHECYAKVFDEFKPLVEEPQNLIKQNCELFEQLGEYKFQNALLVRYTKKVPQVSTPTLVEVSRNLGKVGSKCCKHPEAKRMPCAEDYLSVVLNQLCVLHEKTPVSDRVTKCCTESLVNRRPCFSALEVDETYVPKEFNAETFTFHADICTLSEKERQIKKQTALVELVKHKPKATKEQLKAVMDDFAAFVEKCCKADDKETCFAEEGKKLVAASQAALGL

bovine albumin = bovine albumin (Bos taurus, UniProt P02769); assay: ELISA; […], pH 7.4); room temperature; […]
Sequence of bovine albumin (P02769 25-607): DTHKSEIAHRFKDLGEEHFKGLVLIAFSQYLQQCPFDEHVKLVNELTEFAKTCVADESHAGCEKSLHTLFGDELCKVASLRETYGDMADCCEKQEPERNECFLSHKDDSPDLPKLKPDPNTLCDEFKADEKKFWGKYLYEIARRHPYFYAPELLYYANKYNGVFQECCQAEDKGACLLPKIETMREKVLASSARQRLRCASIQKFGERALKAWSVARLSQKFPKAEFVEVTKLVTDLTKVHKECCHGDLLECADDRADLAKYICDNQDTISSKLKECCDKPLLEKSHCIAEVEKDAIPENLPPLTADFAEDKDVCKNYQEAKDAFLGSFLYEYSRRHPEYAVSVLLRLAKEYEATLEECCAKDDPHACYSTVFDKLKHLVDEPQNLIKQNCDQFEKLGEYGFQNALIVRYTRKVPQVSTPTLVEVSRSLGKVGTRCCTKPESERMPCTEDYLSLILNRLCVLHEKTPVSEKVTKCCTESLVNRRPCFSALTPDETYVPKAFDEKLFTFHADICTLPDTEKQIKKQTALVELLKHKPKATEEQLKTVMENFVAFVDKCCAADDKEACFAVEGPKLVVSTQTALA

sheep albumin = sheep albumin (Ovis aries, UniProt P14639); assay: ELISA; […], pH 7.4); room temperature; […]
Sequence of sheep albumin (P14639 25-607): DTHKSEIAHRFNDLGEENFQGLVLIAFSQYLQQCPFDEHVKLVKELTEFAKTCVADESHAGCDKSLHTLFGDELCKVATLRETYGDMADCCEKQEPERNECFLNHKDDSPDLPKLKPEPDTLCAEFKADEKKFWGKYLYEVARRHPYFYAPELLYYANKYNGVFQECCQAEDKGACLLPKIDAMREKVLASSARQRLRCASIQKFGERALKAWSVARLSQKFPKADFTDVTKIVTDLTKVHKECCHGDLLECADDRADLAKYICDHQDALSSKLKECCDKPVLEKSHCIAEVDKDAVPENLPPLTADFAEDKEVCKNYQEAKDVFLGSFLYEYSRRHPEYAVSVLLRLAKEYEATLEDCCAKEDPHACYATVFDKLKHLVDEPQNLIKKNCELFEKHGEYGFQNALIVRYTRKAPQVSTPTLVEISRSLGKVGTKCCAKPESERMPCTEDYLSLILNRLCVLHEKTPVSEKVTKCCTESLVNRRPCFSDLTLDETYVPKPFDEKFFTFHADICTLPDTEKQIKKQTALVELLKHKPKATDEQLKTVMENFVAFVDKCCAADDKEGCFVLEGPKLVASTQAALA

[6] = target: T3, natural protein of Sus scrofa P08835; assay: ELISA; […], pH 7.4); room temperature; […]
mouse albumin = mouse albumin (Mus musculus, UniProt P07724); assay: ELISA; […], pH 7.4); room temperature; […]
Sequence of mouse albumin (P07724 25-608): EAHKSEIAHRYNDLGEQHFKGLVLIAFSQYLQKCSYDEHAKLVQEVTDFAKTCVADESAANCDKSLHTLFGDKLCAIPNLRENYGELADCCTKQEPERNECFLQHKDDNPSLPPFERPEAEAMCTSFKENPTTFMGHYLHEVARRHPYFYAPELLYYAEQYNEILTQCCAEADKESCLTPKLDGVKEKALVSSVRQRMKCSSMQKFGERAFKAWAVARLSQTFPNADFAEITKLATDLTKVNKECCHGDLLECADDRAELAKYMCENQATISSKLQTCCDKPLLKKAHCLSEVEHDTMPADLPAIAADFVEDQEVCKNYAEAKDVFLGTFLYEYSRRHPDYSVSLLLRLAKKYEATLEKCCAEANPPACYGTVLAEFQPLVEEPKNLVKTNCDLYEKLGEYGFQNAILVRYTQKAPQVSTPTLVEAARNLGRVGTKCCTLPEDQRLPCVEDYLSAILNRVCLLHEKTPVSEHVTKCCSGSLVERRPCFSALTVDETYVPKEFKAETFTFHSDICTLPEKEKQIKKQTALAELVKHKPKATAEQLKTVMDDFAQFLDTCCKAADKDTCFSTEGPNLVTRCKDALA

chicken ovalbumin = chicken ovalbumin (Gallus gallus, UniProt P01012); assay: ELISA; […], pH 7.4); room temperature; […]
Sequence of chicken ovalbumin (P01012 whole entry): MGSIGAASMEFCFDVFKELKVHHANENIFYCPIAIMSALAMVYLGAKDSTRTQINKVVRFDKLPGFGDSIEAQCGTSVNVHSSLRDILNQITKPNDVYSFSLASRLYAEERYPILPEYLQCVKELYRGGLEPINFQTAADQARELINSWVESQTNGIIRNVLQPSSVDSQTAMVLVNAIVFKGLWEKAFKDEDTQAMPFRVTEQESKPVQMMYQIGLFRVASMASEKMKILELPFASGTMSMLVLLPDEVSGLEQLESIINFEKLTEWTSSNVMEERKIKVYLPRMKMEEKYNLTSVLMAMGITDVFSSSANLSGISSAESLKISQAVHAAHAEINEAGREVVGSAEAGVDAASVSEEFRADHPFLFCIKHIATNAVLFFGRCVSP

T2 sequence (P49064 25-608): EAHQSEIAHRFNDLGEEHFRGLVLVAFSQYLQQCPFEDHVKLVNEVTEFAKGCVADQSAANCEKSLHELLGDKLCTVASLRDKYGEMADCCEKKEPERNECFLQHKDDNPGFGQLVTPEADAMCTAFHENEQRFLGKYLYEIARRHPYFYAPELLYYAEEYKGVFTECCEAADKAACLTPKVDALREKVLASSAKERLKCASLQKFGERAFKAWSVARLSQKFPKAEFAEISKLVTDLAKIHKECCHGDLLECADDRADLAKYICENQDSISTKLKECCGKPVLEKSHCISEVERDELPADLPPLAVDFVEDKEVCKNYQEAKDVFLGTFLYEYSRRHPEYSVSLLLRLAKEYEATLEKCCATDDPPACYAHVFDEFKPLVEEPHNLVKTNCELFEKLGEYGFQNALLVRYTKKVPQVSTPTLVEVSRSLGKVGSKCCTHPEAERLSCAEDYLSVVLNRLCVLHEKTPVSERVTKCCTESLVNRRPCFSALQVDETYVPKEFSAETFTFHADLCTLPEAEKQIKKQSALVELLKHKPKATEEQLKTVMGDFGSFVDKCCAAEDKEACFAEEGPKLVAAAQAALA
T3 sequence (P08835 25-607, one chain of several): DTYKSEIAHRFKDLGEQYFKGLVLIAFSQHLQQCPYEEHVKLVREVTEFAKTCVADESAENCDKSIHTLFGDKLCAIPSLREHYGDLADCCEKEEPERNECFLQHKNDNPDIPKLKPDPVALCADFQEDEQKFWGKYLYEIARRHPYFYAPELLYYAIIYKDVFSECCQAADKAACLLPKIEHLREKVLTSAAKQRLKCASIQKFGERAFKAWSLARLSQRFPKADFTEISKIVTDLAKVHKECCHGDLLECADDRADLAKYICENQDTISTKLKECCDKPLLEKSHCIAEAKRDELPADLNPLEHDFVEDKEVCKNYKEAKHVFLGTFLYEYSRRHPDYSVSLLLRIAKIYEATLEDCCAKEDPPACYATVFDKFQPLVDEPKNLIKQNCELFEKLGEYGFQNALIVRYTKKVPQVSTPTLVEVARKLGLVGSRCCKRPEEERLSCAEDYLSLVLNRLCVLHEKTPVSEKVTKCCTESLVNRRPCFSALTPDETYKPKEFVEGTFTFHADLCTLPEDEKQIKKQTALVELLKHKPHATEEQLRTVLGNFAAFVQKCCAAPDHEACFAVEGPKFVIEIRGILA
T1 sequence (P35747 25-607): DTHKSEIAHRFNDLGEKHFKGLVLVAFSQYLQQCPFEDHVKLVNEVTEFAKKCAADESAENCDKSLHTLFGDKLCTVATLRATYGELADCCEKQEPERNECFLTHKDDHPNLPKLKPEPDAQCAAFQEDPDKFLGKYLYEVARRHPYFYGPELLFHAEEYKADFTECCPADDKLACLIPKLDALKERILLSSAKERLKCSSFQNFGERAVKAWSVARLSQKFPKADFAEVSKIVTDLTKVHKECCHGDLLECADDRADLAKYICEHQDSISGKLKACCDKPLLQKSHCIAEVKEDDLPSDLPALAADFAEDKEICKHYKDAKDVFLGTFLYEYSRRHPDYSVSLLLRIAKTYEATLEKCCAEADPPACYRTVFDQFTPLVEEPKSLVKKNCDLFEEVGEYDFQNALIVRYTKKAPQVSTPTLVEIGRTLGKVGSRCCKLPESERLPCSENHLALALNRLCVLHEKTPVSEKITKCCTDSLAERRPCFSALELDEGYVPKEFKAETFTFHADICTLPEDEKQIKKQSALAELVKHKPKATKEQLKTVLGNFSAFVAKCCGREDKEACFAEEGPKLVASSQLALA

Row | Binder | Kd (horse albumin [1]) [nM] | koff (horse albumin [1]) [s⁻¹] | Kd (cat albumin [2]) [nM] | koff (cat albumin [2]) [s⁻¹] | binding result (horse albumin [4]) | other results
1 | A12L (VHH, also called sdAb A12) VHH: QVQLQESGGGLVQAGGSLRLSCAASGRTFSYYPMAWFRQAPGQEREFVAAIIGADTTYYADSLKGRFTISRDNAKNMVYLQMNSLKPEDTAVYYCAARNTYWSDVYYREGQYTNWGQGTQVTVSS | 13 | 0.00115 | 31 | 0.00082 |  | Kd [3]: 189 nM; koff [3]: 0.0249 s⁻¹
2 | A16L (VHH, also called sdAb A16) VHH: QVQLQESGGGVVQAGGSLRLSCAASGRTVSSSAMGWFRLAPGKEREFVVGISRSGGSIFYADSVKGRFTISRKNAKNTVDLQMNSLKPEDTAVYYCAAGYRPGYGDYGRVFYREDEYDDWGQGTQVTVSS | 11 | 0.00242 |  |  |  | 
3 | A7L (VHH, also called sdAb A7) VHH: QVQLQQSGGGLVQAGDSLRLSCAASGRAFNYYTMGWFRQAPGKEREFVAKIYWDGGSTIYADSVKGRFTISIDNAKNTVYLQMNSLKPEDTAVYYCAADPSFYPFRPKYWGQGTQVTVSS |  |  |  |  | binds | binding result (cat albumin [5]): no binding (tested: 1 µg/ml sdAb); binding result (human albumin): no binding (tested: 1 µg/ml sdAb); binding result (bovine albumin): no binding (tested: 1 µg/ml sdAb); binding result (sheep albumin): no binding (tested: 1 µg/ml sdAb); binding result [6]: no binding (tested: 1 µg/ml sdAb); binding result (mouse albumin): no binding (tested: 1 µg/ml sdAb); binding result (chicken ovalbumin): no binding (tested: 1 µg/ml sdAb)
4 | A2L (VHH, also called sdAb A2) VHH: QVQLQQSGGGLVQAGGSLRLSCAASGRFFSRQVMGWFRQAPGKDREFVGVISWDNGVTFYSDSVKGRFTMSREIAKKTVHLQMNSLKPEDTAVYYCAAGNALHSRYYSPSKYDYWGPGTQVTVSS |  |  |  |  | binds | 
5 | A6L (VHH, also called sdAb A6) VHH: QVQLQESGGRLVQAEDSLRLSCAASGRTFVSYDMGWFRQAPGKEREFVAAINWRGYTTDYVDSVKGRFFISRDIAKSTVYLQMNNLKPEDTAVYYCAARQMSGSSRYSPPGRVGYDFWGQGTQVTVSS | 13 | 0.00966 | 1.2 | 0.00087 |  | 
